Results from patent US20160237095A1 (KADMON, published 2016).

Assays:
murine VEGFR2 [1] = biological target: T1, murine VEGFR2 (murine, UniProt P35918 20-762, limits assumed); assay: Biacore
T1 construct: Antigen in the ELISA and Biacore assays; also called mVEGFR2; mouse VEGFR2

human VEGFR2 [2] = biological target: T2, human VEGFR2 (human, UniProt P35968 20-764, limits assumed); assay: Biacore
T2 construct: Antigen in the ELISA and Biacore assays; also called hVEGFR2; KDR

rat VEGFR2 = biological target: T3, rat VEGFR2 (rat, UniProt O08775 20-760, limits assumed); assay: Biacore
T3 construct: Antigen in the Biacore assay

[3] = biological target: T4, human VEGFR2 expressed on HUVEC and on KDR-PAE cells (human, UniProt P35968 20-1356); assay: cell binding (MFI), KDR-PAE cells
T4 construct: whole, on cells; also called hVEGFR2; hVEGR2

murine VEGFR2 [4] = biological target: T1, murine VEGFR2; assay: blocking ELISA, mVEGF binding to mVEGFR2 (right panel) [continued) B]
murine VEGFR2 [5] = biological target: T1, murine VEGFR2; assay: ELISA, binding to mVEGFR2 (right panel)
human VEGFR2 [6] = biological target: T2, human VEGFR2; assay: blocking ELISA, hVEGF binding to hVEGFR2 (left panel) [continued) B]
human VEGFR2 [7] = biological target: T2, human VEGFR2; assay: ELISA, binding to hVEGFR2 (left panel)
murine VEGFR2 [8] = biological target: T1, murine VEGFR2; assay: ELISA, binding to mVEGFR2 (right panel); detected with a different secondary antibody

T1 sequence (P35918 20-762 limits assumed): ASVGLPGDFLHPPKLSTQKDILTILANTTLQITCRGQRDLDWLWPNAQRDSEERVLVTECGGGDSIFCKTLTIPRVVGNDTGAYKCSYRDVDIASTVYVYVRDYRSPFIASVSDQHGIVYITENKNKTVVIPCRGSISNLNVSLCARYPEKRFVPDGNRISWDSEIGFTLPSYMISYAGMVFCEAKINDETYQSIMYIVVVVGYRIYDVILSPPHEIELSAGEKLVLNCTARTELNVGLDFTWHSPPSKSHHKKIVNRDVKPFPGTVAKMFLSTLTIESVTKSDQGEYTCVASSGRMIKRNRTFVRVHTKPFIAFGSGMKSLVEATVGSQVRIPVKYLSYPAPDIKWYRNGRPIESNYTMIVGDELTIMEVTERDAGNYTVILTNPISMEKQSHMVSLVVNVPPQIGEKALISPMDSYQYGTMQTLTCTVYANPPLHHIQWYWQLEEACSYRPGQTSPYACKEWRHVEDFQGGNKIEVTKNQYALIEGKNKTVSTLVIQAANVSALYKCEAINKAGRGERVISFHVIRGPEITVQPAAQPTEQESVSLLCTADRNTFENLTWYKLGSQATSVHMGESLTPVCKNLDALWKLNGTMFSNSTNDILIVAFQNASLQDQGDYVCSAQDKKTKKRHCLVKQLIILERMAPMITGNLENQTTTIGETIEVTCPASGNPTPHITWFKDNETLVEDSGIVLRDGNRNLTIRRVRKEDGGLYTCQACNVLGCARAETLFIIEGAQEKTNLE
T3 sequence (O08775 20-760 limits assumed): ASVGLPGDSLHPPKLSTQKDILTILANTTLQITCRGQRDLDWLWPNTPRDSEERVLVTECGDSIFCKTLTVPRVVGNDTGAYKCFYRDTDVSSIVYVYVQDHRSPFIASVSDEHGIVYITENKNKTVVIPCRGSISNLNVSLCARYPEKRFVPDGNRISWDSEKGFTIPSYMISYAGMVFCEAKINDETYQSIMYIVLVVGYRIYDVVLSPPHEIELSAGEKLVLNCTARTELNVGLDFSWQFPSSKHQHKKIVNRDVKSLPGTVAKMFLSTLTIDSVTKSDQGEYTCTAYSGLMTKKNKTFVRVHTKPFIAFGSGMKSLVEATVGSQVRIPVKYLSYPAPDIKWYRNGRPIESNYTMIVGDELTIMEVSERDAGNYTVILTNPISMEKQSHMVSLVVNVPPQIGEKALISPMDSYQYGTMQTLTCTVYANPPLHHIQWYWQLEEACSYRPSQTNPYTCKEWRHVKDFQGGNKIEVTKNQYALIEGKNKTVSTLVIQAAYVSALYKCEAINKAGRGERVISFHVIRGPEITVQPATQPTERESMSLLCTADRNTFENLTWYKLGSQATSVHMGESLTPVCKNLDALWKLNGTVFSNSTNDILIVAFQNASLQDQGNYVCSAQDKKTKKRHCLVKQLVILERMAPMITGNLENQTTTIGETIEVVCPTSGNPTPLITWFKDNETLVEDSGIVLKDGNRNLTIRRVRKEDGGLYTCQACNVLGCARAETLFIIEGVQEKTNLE
T2 sequence (P35968 20-764 limits assumed): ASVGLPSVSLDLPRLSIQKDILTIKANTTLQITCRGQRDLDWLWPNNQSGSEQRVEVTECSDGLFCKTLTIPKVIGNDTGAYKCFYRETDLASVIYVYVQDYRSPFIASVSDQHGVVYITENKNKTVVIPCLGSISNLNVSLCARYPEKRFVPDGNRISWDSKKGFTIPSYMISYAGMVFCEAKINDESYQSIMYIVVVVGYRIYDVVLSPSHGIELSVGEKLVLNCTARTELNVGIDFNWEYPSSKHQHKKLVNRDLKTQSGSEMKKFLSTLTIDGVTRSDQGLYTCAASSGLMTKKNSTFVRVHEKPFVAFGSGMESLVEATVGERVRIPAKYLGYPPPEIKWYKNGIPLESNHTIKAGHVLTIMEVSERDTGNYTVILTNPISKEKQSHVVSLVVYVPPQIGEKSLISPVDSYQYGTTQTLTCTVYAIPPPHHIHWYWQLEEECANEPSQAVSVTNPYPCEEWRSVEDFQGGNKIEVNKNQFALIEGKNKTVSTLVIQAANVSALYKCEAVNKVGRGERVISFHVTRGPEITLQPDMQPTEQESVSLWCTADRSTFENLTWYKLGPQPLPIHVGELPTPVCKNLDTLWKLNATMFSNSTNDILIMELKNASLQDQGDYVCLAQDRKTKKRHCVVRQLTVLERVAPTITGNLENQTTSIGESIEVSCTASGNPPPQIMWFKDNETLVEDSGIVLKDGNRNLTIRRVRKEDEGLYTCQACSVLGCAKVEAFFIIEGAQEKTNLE
T4 sequence (P35968 20-1356): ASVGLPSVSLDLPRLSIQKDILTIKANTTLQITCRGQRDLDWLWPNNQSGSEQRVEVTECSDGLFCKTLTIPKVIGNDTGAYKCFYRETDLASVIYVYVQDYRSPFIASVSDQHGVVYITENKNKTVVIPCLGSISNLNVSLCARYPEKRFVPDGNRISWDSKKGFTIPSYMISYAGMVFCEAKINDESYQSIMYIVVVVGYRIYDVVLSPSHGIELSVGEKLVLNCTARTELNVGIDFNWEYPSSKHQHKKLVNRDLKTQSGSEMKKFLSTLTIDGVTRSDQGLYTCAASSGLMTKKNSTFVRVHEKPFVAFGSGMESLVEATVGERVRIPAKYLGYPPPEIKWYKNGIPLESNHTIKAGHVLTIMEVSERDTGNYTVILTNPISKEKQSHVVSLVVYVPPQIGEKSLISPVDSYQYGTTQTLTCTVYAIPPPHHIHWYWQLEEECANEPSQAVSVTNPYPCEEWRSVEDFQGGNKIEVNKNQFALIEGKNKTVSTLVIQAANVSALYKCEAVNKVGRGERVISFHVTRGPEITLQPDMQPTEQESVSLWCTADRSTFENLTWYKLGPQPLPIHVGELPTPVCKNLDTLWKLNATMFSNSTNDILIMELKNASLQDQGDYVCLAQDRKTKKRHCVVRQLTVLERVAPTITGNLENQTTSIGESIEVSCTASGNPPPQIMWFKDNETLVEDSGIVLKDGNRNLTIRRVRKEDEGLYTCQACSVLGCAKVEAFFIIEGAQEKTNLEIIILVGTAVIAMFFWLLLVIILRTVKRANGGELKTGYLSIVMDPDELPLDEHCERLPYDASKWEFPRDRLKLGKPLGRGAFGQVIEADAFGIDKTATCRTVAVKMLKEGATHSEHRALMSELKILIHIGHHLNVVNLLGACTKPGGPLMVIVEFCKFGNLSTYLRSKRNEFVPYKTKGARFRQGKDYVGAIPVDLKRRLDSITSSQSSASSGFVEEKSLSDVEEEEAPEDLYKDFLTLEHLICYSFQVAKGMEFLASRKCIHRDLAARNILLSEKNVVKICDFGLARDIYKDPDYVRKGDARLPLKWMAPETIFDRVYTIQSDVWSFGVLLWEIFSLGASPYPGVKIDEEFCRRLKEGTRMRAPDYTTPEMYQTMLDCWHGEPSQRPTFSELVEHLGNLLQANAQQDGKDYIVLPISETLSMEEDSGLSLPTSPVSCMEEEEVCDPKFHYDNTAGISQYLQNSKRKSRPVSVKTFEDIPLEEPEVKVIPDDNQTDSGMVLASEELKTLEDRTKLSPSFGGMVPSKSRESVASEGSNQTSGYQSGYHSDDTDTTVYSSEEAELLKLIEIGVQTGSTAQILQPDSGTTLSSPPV

Binder	Kd (murine VEGFR2 [1])	Kd (human VEGFR2 [2])	Kd (rat VEGFR2)	EC50 (read off the curve) [3]	IC50 (read off the curve) (murine VEGFR2 [4])	EC50 (read off the curve) (murine VEGFR2 [5])	IC50 (read off the curve) (human VEGFR2 [6])	EC50 (read off the curve) (human VEGFR2 [7])	EC50 (read off the curve) (murine VEGFR2 [8])
Mab 149 (antibody, V domains shown) VH: EVQLLESGGGLVQPGGSLRLSCAASGFTFSWYVMGWVRQAPGKGLEWVSSIYPSGGATNYADSVKGRFTISRDNSKNTLYLQMNSLRAEDTAVYYCARGNYLDYWGQGTLVTVSS VL: DIQMTQSPGTLSLSPGEGATLSCRASQSVSSNYFGWYQQKPGQAPRLLIYGASSRATGIPDRFSGSGSGTDFTLTISRLEPEDSAVYYCQQFDSSPLSFGGGTKVEIKR	79.2 nM	7.65 nM	43.1 nM	–	–	–	–	–	–
Mab 138 (antibody, V domains shown) VH: EVQLLESGGGLVQPGGSLRLSCAASGFTFSWYVMGWVRQAPGKGLEWVSSIYPSGGATNYADSVKGRFTISRDNSKNTLYLQMNSLRAEDTAVYYCARGNYFDYWGQGTLVTVSS VL: DIQMTQSPGTLSLSPGDRATLSCRASQSVSSNYLAWYQQKPGQAPRVLIYGASTRATGIPDRFTGSGSGTDFTLTISRLEPEDSAVYYCQQFDSSPLSFGGGTKVEIKR	–	–	31.2 nM	–	–	–	–	–	–
Mab 147 (antibody, V domains shown) VH: EVQLLESGGGLVQPGGSLRLSCAASGFTFSWYVMGWVRQAPGKGLEWVSSIYPQGGATSYADSVKGRFTISRDNSKNTLYLQMNSLRAEDTAVYYCARGNYFDYWGQGTLVTVSS VL: DIQMTQSPGTLSLSPGEGATLSCRASQSVSSNYFGWYQQKPGQAPRLLIYGASSRATGIPDRFSGSGSGTDFTLTISRLEPEDSAVYYCQQFDSLPLTFGGGTKVEIKR	29.4 nM	2.51 nM	13.9 nM	~0.3 nM	~0.5 nM	~0.1 nM	~0.4 nM	~0.1 nM	–
DC 101 (a murine monoclonal Ab that binds to murine VEGFR2) (antibody, V domains shown) VH: EVQLVETGGGLVQPGNSLKLSCATSGFIFSTTWMNWIRQTPGKRLEWLAQIEDKSNNYFISYSESVKGRFTISRDDSKSSVYLQMNNLKEEDTAIYYCSWKYRSNYYFDYWGQGVMVTVSS VL: DIVLTQSPALAVSLEQRATISCKTSQNVDYYGISYLHWYQQKPGQQPKLLIYEGSNLASGIPARFSGSGSGTDFTLTIDPVEADDIVTYYCQQSKDYPYTFGAGTKLELK	–	–	–	–	~0.6 nM	–	–	–	~0.3 nM
